The values that follow come from the nanobody polyreactivity screen of Harvey et al. (2022).

The data set can be described thus: yeast display, Sf9 membrane polyspecificity reagent, FACS + sequencing; frameworks hold sequencing errors. In a few lines: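 Genes from sorted yeast were amplified by colony PCR, read by MiSeq 2 × 250 sequencing and filtered on CDR length. These cells carried a synthetic nanobody library in Saccharomyces cerevisiae BJ5465 and were sorted by FACS into low and high (top ~1%) gates on anti-HA and streptavidin fluorescence. Polyreactivity is labelled according to the gate of origin.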
Take “QVQLVESGGGLVQAGGSLRLSCAASGSIFFLYAMGWYRQAPGKEREFVAAITGTADSTYYADSVKGRFTISRDDAKNTVYLQMNSLKPEDTAVYYCATDYWSSVKLDDYWGQGTQVTVSS”: the “polyreactivity (PSR sort gate)” value is reported as “low polyreactivity”.

In the case of “QVQLVESGGGLVQAGGSLRLSCAASGSIFFRYAMGWYRQAPGKERELVAGITYSSGSSTYADSVKGRFTISRHNAKNTVYLQMNSLKPEDTAVYYCAAAYRFPGNRYDYWGQGTQVTVSS”, the “polyreactivity (PSR sort gate)” value is “low polyreactivity”.

For the sequence “QVQLVESGGGLVQAGGSLRLSCAASGSIFFRYTMGWYRQAPGKERELVAAITGSGGSTYYADSVKGRFTISRDNAKNTVYLQMNSLKPEDTAVYYCARPGWGRYEYWGQGTQVTVSS”, the “polyreactivity (PSR sort gate)” value was “high polyreactivity”.

Turning to “QVQLVESGGGLVQAGGSLRLSCAASGSIFFSNAMGGYRQAPGKERELVAAITSTGGSTYYADSVKGRFTISRDNAKNTGYLQMNSLKPEDTAVYYCAAASRRGYYYWGQGTQVTVSS”, the “polyreactivity (PSR sort gate)” value was “high polyreactivity”.

As for “QVQLVESGGGLVQAGGSLRLSCAASGSIFFSSAMGWSRQEPGKERELVAAISSGASTYYADSVKGRFTISRDNAKNTVYLQMNSLKPEDTAVYYCAARGYRLVPVDFYYWGQGTQVTVSS”, the “polyreactivity (PSR sort gate)” value is on record as “low polyreactivity”.

Regarding “QVQLVESGGGLVQAGGSLRLSCAASGSIFFSYAMGWYRPAPGKERELVAGINWSGGSTYADSVKGRFTLSRDNAKNTVYLQINSLKPEDTAVYYCAAKYYSERSRYHYWGQGTQVTVSS”, the “polyreactivity (PSR sort gate)” value is “low polyreactivity”.

Turning to “QVQLVESGGGLVQAGGSLRLSCAASGSIFFTYAMGWYRQAPGKERELVAGISWGGGSTHYADSVKGRFTISRDNAKNTVYLQMNSLKPEDTAVYYCARVWPYPSTEYGYTGRLYDYWGQGTQVTVSS”, the “polyreactivity (PSR sort gate)” value was “low polyreactivity”.

As for “QVQLVESGGGLVQAGGSLRLSCAASGSIFFYNVMGWYRQAPGKERELVASISWRGASTYYADSVKGRFTISRDNAKNTVYLQMNSLKPEDTAVYYCAARFGSATRYQTGYYWGQGTQVTVSS”, the “polyreactivity (PSR sort gate)” value is on record as “high polyreactivity”.

For “QVQLVESGGGLVQAGGSLRLSCAASGSIFGANAMGWYRQAPGKERELVAAISSGDSTYADSVKGRFTISRDNAKNTVYLQMNSLKPEDTAVYYCATCRYGGQGYPFYYWGQGTQVTVSS”, the “polyreactivity (PSR sort gate)” value was “low polyreactivity”.

As to “QVQLVESGGGLVQAGGSLRLSCAASGSIFGANTMGWYRQAPGKERELVAGITSGARTYYADSVKGRFTISRDNAKNTVYLQMNSLKPEDTAVYYCAADTWKVFGVDYWGQGTQVTVSS”, the “polyreactivity (PSR sort gate)” value is “high polyreactivity”.

With “QVQLVESGGGLVQAGGSLRLSCAASGSIFGAYAMGSYRQAPGKERELVASISDGGGTYYADSVKGRFTISRDNAKNTVYLQMNSLKPEDTAVYYCAADPPKRVPGGYWGQGTQVTVSS”, the “polyreactivity (PSR sort gate)” value is recorded as “low polyreactivity”.

For the sequence “QVQLVESGGGLVQAGGSLRLSCAASGSIFGAYDMGWSRQAPGKERELVASITSGDSTNYADSVTGRFTISRDNAKNTVYLQMNSLKPEDTAVYYCAADLAVAVAADYDSWGQGTQVTVSS”, the “polyreactivity (PSR sort gate)” value is recorded as “low polyreactivity”.

With “QVQLVESGGGLVQAGGSLRLSCAASGSIFGAYGMGWYRQAPGKEREFVAAITGRGSTTYYADSVKGRFTISRDNAKNTVYLQMTSLKPEDTAVYYCNTRYRGLYHYPMGSWGQGTQVTVSS”, the “polyreactivity (PSR sort gate)” value is “high polyreactivity”.

As for “QVQLVESGGGLVQAGGSLRLSCAASGSIFGAYTMGWYRQAPGKERELVAAISIGGSTNYADSVKGRFTISRDNAKNTVYLQMNSLKPEDTAVYYCAAYRQANRYGGEDYWGLGTQVTVSS”, the “polyreactivity (PSR sort gate)” value is “high polyreactivity”.

As for “QVQLVESGGGLVQAGGSLRLSCAASGSIFGAYTMGWYRQAPGKERELVAAITGGGITNYADSVKGRFTISRDNAKNTVYLQMNSLKPEDTAVYYCNAGYPPQTVVVGYDYWGQGTQVTVSS”, the “polyreactivity (PSR sort gate)” value is “low polyreactivity”.

For the sequence “QVQLVESGGGLVQAGGSLRLSCAASGSIFGDNVMGWYRPAPGKERELVAAISRSGGSTYYADSVKGRFTISRDNAKNTVYVEMNSLIPEDSSVYYCAARYWSWRSFKVDYWGQGTQVTVSS”, the “polyreactivity (PSR sort gate)” value is “high polyreactivity”.

As for “QVQLVESGGGLVQAGGSLRLSCAASGSIFGEYAMGWYRQAPGKERELVAGITSDGSTNYADSVKGRFTISRDNAKNTVYLQMNSLKQEDTAVYYCAAAGYVYHWAPRGSRYYYWGQGTQVTVSS”, the “polyreactivity (PSR sort gate)” value is “low polyreactivity”.

Take “QVQLVESGGGLVQAGGSLRLSCAASGSIFGFNALGWYRQAPGKERELVAAINNGGSTNYADSVKGRFTISRDNATNTVYLQMNSLKPEDTAVYYCAARLNYIRRGYWGQGTQVTVSS”: the “polyreactivity (PSR sort gate)” value is given as “high polyreactivity”.

For “QVQLVESGGGLVQAGGSLRLSCAASGSIFGFNAMGWYRQAPGKERELVAAINNGGSTNYADSVKGRFTISRDNAKNTVYLQMNSLKPEDTAVYYCAARLNYIRRGYWGQGTQVTVSS”, the “polyreactivity (PSR sort gate)” value was “high polyreactivity”.

With “QVQLVESGGGLVQAGGSLRLSCAASGSIFGFNAMGWYRQAPGKERELVAAISGRGTGTYYADSVKGRFTISRDNAKNTVYLQMNSLKPEDTAVYYCYTYYYWGQGTQVTVSS”, the “polyreactivity (PSR sort gate)” value was “high polyreactivity”.

As to “QVQLVESGGGLVQAGGSLRLSCAASGSIFGFNAMGWYRQAPGKERELVAAISSGGITNYADSVKGRFTISRDNAKNTVSLQMNSLKPEVTAVYYCAAASESNWSFNYWGQGTQVTVSS”, the “polyreactivity (PSR sort gate)” value is on record as “low polyreactivity”.

For “QVQLVESGGGLVQAGGSLRLSCAASGSIFGFNAMGWYRQAPGKERELVAAISSGSTYYADSVKGRFTISRDNAKNTVYLQMNRLKPEDTAVYYCAATTGYSWYGYWGQGTQVTVSS”, the “polyreactivity (PSR sort gate)” value was “low polyreactivity”.

With “QVQLVESGGGLVQAGGSLRLSCAASGSIFGFNTMGWYRQAPGKERELVATINRSGGSTYYADSVKGRFTISRDNAKNTVYVQINSLKPEDTAVYYCAKDVWRHYMNLYDYWGQGTQVTVSS”, the “polyreactivity (PSR sort gate)” value is given as “low polyreactivity”.

Take “QVQLVESGGGLVQAGGSLRLSCAASGSIFGFYAKGWSRQAPGKEWELVAAITSGDSTHYADSVKGRFTISRDNAKNTVYLQMKSLKPEDTAVNYCAASAPYRYYRSAYSYWGLGTQVTVSS”: the “polyreactivity (PSR sort gate)” value is reported as “low polyreactivity”.

With “QVQLVESGGGLVQAGGSLRLSCAASGSIFGFYAMGWSRQAPGKERELVAAITSGARTTYADSVKGRFTISRDNAKNTVYLQMNSLKPEDTAVYYSNADTGLGSLDFDKRDYWGQGTQVTVSS”, the “polyreactivity (PSR sort gate)” value is on record as “low polyreactivity”.

Regarding “QVQLVESGGGLVQAGGSLRLSCAASGSIFGFYAMGWYRQAPGKERELVAAITTGGSTYYADSVKGRFTISRDNAKNNVYFQMISLKPEDTAVYYCAKERWFPYERNDYWGQGTLVTVSS”, the “polyreactivity (PSR sort gate)” value is on record as “low polyreactivity”.

Take “QVQLVESGGGLVQAGGSLRLSCAASGSIFGFYAMGWYRQAPGKERELVAAITYSGGSTYADSVKGRFTISRDNAKNTVYLQMNSLKPEDTAVYYCAKDAELDITDAFYYWGQGTQVTVSS”: the “polyreactivity (PSR sort gate)” value is reported as “low polyreactivity”.

In the case of “QVQLVESGGGLVQAGGSLRLSCAASGSIFGFYAMGWYRQAPGKERELVASITISGGSTYYADSVKGRFTISRDNAKNTVYLQLNSLKPEDTAVYYCAARRFWDYNYWGQGTQVTVSS”, the “polyreactivity (PSR sort gate)” value is recorded as “low polyreactivity”.

For the sequence “QVQLVESGGGLVQAGGSLRLSCAASGSIFGGNAMGWYRQPPGKERELVAAITDGGNTNYADSVKGRFTISRDNAKNTVYLQMNSMKPEDTAVFYCAARIPGTYGGRYGYDYWGQGTQVTVSS”, the “polyreactivity (PSR sort gate)” value is given as “low polyreactivity”.

“QVQLVESGGGLVQAGGSLRLSCAASGSIFGGNTMGWYRQAPGKERELVAAIRYSGGSTYYADSVKGRFTISRDNAKNTVYLQMNSLKPEDTAVYYCATSYRQYGYYWYDYWGQGTQVTVSS”: the “polyreactivity (PSR sort gate)” value is listed as “high polyreactivity”.
